Reference: US11162953B2, “Protein binding domains stabilizing functional conformational states of GPCRS and uses thereof” (priority 2010, dated 2021)
“Also recorded” adds a separate entry of the source. Structures can show the parent of a compound that is named as a salt. Where two headings read alike, the source gives them in different places.

What was measured:
β2AR [1] = target: T1, β2AR (Homo sapiens, UniProt P07550); assay type: binding
β2AR [2] = target: T1, β2AR; assay: Monobromobimane fluorescence of purified mBBr-labeled β2AR; assay type: biochemical; parameters: made in house; conditions: 1 μM nanobody, β2AR bound to full agonist isoproterenol
Source text: To investigate the effect of nanobodies on movement of the cytoplasmic domain of TM6 we labeled purified β2AR at C265 with monobromobimane (mBB-β2AR). […] In mBB-β2AR, the addition of agonist together with G protein results in larger fluorescent changes than either agonist or G protein alone. This is compatible with the cooperative interactions observed in agonist competition binding assays (Yao et al. 2009).
Purified β2AR was reacted with 1:1 equivalent of monobromobimane (mBBr, Invitrogen) in 100 mM NaCl, 20 mM HEPES, pH 7.5, 0.1% dodecyl maltoside and incubated overnight on ice in the dark. The fluorophore-labeled receptor was purified right before use by gel filtration on a desalting column equilibrated with the same buffer. […] All experiments were performed at 25° C. […] To determine the effect of nanobodies and ligands, three individual labeled protein samples were incubated with 1 μM nanobody or 10 μM Isoproterenol or both. Emission spectra of the samples were taken after 1 hour incubation.

β2AR [3] = assay: Size exclusion chromatography of nanobody with purified agonist- or inverse agonist-bound β2AR; assay type: binding, human; conditions: 20 μM β2AR bound to agonist or inverse agonist, 40 μM nanobody
Description: The mixture was then analyzed by Size Exclusion Chromatography (SEC), which separates protein on the basis of size. Seven of the nanobodies bound to purified β2AR and migrated as a complex on SEC only in the presence of agonist and not an inverse agonist (an example is shown in FIG. 1, Panel a, FIGS. 3A, 3B, and FIG. 4).
Agonist selective nanobodies were identified by size exclusion chromatography following incubation of 20 μM agonist or inverse agonist-(carazolol-) bound β2AR-365N for one hour at RT in the absence or presence of 40 μM nanobody.

β2AR [4] = target: T1, β2AR; conditions: agonist competition binding, Sf9 membranes
Source text: The IC50 values used for calculations of Ki values were obtained from means of pIC50 values determined by nonlinear regression analysis using Prism (GraphPad Software, San Diego, Calif.) and the s.e. interval from pIC50±s.e.

[5] = ratio of IC50 with irrelevant Nb to IC50 with 500 nM Nb80, 3H-DHA radioligand

Row | Molecule | Potency shift (β2AR [1]; [5]) | complex formation with β2AR on SEC (β2AR [3]) | enhancement of the affinity of β2AR for the agonist isoproterenol in the presence of nanobody (β2AR [4]) | other results
1 | CC(CCc1ccc(O)cc1)NCCc1ccc(O)c(O)c1 (centres unmarked) [dobutamine, dobutamine hydrochloride] | 2.3 | – | – | –
2 | CC(Cc1ccc(O)cc1)NCC(O)c1cc(O)cc(O)c1 (centres unmarked) [fenoterol, fenoterol hydrobromide] | 3.7 | – | – | –
3 | CCC(NC(C)C)C(O)c1ccc(O)c2[nH]c(=O)ccc12 (centres unmarked) [procaterol, procaterol hydrochloride] | 2.3 | – | – | –
4 | CC(NCCc1ccc(O)cc1)C(O)c1ccc(O)cc1 (centres unmarked) [ritodrine, ritodrine hydrochloride] | 2.7 | – | – | –
5 | metaproterenol hemisulfate salt | – | – | – | Potency shift (β2AR [1]): 2.9
6 | NB71: β2AR-specific nanobody, SEQ ID NO:25 (protein, listed as Lama glama) VHH: QVQLQESGGGLVQPGGSLRLSCAASGFAFSSYELRWYRQAPGKQHELVAGITTGGNTYYADSVKGRFTISRDNAKNTVYLQMSNLRPEDTAVYACNANWDLLSDYWGQGTQVTVSS | – | elutes at an earlier volume | two- to thirty-fold | nanobody-induced change of mBBr fluorescence (β2AR [2]; listed as 71): Comparable results; also recorded: stabilize a more active state of the β2AR
7 | NB72: β2AR-specific nanobody, SEQ ID NO:24; the tested NB72 is assumed to be this one (protein, listed as Lama glama) VHH: QVQLQESGGGLVQPGGSLRLSCAASGFTFSGYAMNWVRQAPGKGPEWVSAINSGGGSTSYADSVKGRFTISRDNAKNTVYLQMNSLKPEDTAVYYCHARDIYSDFLGQYEYDYWGQGTQVTVSS | – | elutes at an earlier volume | two- to thirty-fold | nanobody-induced change of mBBr fluorescence (β2AR [2]; listed as 72): Comparable results; also recorded: stabilize a more active state of the β2AR
8 | NB67: β2AR-specific nanobody, SEQ ID NO:20 (protein, listed as Lama glama) VHH: QVQLQESGGGLVQAGGSLRLSCAASGTISSFIAMGWYRQSPGKQRELVAGITSGGETNYEDSVKGRFTISRDNAKNTLYLQMNTLKPEDTAVYYCNAQVFADIFNLINYWGQGTQVTVSS | – | elutes at an earlier volume | two- to thirty-fold | nanobody-induced change of mBBr fluorescence (β2AR [2]; listed as 67): Comparable results; also recorded: stabilize a more active state of the β2AR
9 | NB69: β2AR-specific nanobody, SEQ ID NO:26 (protein, listed as Lama glama) VHH: QVQLQESGGGLVQPGGSLRLSCAASGSIFSINAMGWYRQAPGKQRDLVASITSGGSTNYADSVKGRFTISRDNAKNTVYLQMNSLKPEDTAVYYCNVQGTGPSSWLFNEYDYWGQGTQVTVSS | – | elutes at an earlier volume | two- to thirty-fold | nanobody-induced change of mBBr fluorescence (β2AR [2]; listed as 69): Comparable results; also recorded: stabilize a more active state of the β2AR
10 | NB84: β2AR-specific nanobody, SEQ ID NO:29; the tested NB84 is assumed to be this one (protein, listed as Lama glama) VHH: QVQLQESGGGLVQAGGSLRLSCAASGSIFSINAMGWYRQAPGKQRELVAAITSGGSTTYADSVKGRFTVSRDNAKNTVYLQMIRLKPEDTAVYYCHVRDIYSDFLGQYEYDYWGQGTQVTVSS | – | elutes at an earlier volume | two- to thirty-fold | nanobody-induced change of mBBr fluorescence (β2AR [2]; listed as 84): Comparable results; also recorded: stabilize a more active state of the β2AR
11 | NB65: β2AR-specific nanobody, SEQ ID NO:5 (protein, listed as Lama glama) VHH: QVQLQESGGGLVQAGGSLRLSCAASGSIFSINTMGWYRQAPGKQRELVAAIHSGGSTNYADSVRGRFTISRDNAKNTVYLQMNSLKPEDTAVYYCNVKDYGAVLYEYDYWGQGTQVTVSS | – | elutes at an earlier volume | two- to thirty-fold | nanobody-induced change of mBBr fluorescence (β2AR [2]; listed as 65): Comparable results; also recorded: stabilize a more active state of the β2AR
